T1: EsCas13d, nuclease-dead (Eubacterium siraeum, UniProt B0MS50, R295A;H300A;R849A;H854A)
T1 sequence: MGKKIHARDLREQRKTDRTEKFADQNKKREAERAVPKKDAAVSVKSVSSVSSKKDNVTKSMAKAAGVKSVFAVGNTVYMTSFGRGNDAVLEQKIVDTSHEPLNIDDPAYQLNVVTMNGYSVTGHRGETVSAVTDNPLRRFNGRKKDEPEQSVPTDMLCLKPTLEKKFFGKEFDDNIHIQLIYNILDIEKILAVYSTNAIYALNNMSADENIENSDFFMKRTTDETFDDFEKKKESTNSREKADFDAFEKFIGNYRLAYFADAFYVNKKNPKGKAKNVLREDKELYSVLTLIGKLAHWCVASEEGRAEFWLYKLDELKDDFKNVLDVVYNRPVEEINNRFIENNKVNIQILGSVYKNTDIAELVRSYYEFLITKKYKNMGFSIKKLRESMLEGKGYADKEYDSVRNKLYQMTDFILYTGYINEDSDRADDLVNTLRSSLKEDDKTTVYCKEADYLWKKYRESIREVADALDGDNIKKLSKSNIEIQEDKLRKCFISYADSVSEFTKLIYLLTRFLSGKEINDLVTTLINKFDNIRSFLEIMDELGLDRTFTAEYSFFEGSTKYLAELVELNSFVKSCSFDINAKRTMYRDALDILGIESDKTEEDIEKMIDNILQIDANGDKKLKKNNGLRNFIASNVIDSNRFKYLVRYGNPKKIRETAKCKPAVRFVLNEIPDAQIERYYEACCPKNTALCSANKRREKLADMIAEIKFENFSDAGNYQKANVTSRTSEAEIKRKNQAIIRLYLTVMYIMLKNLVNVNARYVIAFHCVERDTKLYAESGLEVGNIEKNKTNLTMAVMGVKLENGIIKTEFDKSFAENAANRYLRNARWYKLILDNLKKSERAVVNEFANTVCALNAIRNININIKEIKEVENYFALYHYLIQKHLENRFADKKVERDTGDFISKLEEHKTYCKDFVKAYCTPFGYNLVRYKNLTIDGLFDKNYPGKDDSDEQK


Biological target: T1, EsCas13d, nuclease-dead
Assay: crRNA (strand 1, pre-loaded); Mg2+; 40 mM Tris-HCl pH 7.5, 150 mM NaCl, 6 mM MgCl2, 1 mM DTT, 0.1% Tween-20, 0.2 mg/ml BSA; 25 C; 10 min per concentration, then washed
Details: tags: His6-TwinStrep-SUMO cleaved; N-terminal SNAP kept (SNAP-Surface 488); label: 3' end held by stalled T7 RNA polymerase

Binder | Kd
target 1 insU 3' of 17,insG 3' of 2 (mixed) RNA 1: CACCCGUGCAAAAAUGCAGGGGUCUAAAACUGAGCGGAUAACCUCUCUAUGG RNA 2: GGGAAUGGAUCCACAUCUACGAAUUCGUACCAUAGUAGAGGUUAUCCGCUCGACCGAGAUCGGAAGAGCACACGU | 19.8 ± 2.5 nM
target 1 insA 3' of 19,insC 3' of 10 (mixed) RNA 1: CACCCGUGCAAAAAUGCAGGGGUCUAAAACUGAGCGGAUAACCUCUCUAUGG RNA 2: GGGAAUGGAUCCACAUCUACGAAUUCGUACCAUAAGAGAGGUUCAUCCGCUCACCGAGAUCGGAAGAGCACACGU | 40 ± 4 nM
target 2 MT 5'PFS CUC 3'PFS CAC (mixed) RNA 1: CACCCGUGCAAAAUUGCAGGGGUCUAAAACCUUCUCCAAAUUGUUUCAUCCU RNA 2: GGGAAUGGAUCCACAUCUACGAAUUCCUCAGGAUGAAACAAUUUGGAGAAGCACAGAUCGGAAGAGCACACGU | 3.9 ± 0.9 nM
target 2 MT 5'PFS CUU 3'PFS AUA (mixed) RNA 1: CACCCGUGCAAAAUUGCAGGGGUCUAAAACCUUCUCCAAAUUGUUUCAUCCU RNA 2: GGGAAUGGAUCCACAUCUACGAAUUCCUUAGGAUGAAACAAUUUGGAGAAGAUAAGAUCGGAAGAGCACACGU | 4.7 ± 0.7 nM
target 2 MT 5'PFS AAA 3'PFS CCU (mixed) RNA 1: CACCCGUGCAAAAUUGCAGGGGUCUAAAACCUUCUCCAAAUUGUUUCAUCCU RNA 2: GGGAAUGGAUCCACAUCUACGAAUUCAAAAGGAUGAAACAAUUUGGAGAAGCCUAGAUCGGAAGAGCACACGU | 34 ± 13 nM
target 2 MT 5'PFS UAC 3'PFS AUC (mixed) RNA 1: CACCCGUGCAAAAUUGCAGGGGUCUAAAACCUUCUCCAAAUUGUUUCAUCCU RNA 2: GGGAAUGGAUCCACAUCUACGAAUUCUACAGGAUGAAACAAUUUGGAGAAGAUCAGAUCGGAAGAGCACACGU | 7 ± 1.7 nM
target 2 MT 5'PFS GCG 3'PFS CUC (mixed) RNA 1: CACCCGUGCAAAAUUGCAGGGGUCUAAAACCUUCUCCAAAUUGUUUCAUCCU RNA 2: GGGAAUGGAUCCACAUCUACGAAUUCGCGAGGAUGAAACAAUUUGGAGAAGCUCAGAUCGGAAGAGCACACGU | 21 ± 4 nM
target 2 MT 5'PFS UCA 3'PFS CCA (mixed) RNA 1: CACCCGUGCAAAAUUGCAGGGGUCUAAAACCUUCUCCAAAUUGUUUCAUCCU RNA 2: GGGAAUGGAUCCACAUCUACGAAUUCUCAAGGAUGAAACAAUUUGGAGAAGCCAAGAUCGGAAGAGCACACGU | 10 ± 4 nM
target 2 MT 5'PFS UGG 3'PFS AAU (mixed) RNA 1: CACCCGUGCAAAAUUGCAGGGGUCUAAAACCUUCUCCAAAUUGUUUCAUCCU RNA 2: GGGAAUGGAUCCACAUCUACGAAUUCUGGAGGAUGAAACAAUUUGGAGAAGAAUAGAUCGGAAGAGCACACGU | 5.9 ± 0.7 nM
target 2 MT 5'PFS CAC 3'PFS AUC (mixed) RNA 1: CACCCGUGCAAAAUUGCAGGGGUCUAAAACCUUCUCCAAAUUGUUUCAUCCU RNA 2: GGGAAUGGAUCCACAUCUACGAAUUCCACAGGAUGAAACAAUUUGGAGAAGAUCAGAUCGGAAGAGCACACGU | 2 ± 0.4 nM
target 2 MT 5'PFS GCG 3'PFS CUU (mixed) RNA 1: CACCCGUGCAAAAUUGCAGGGGUCUAAAACCUUCUCCAAAUUGUUUCAUCCU RNA 2: GGGAAUGGAUCCACAUCUACGAAUUCGCGAGGAUGAAACAAUUUGGAGAAGCUUAGAUCGGAAGAGCACACGU | 24 ± 6 nM
target 2 MT 5'PFS CAC 3'PFS AUG (mixed) RNA 1: CACCCGUGCAAAAUUGCAGGGGUCUAAAACCUUCUCCAAAUUGUUUCAUCCU RNA 2: GGGAAUGGAUCCACAUCUACGAAUUCCACAGGAUGAAACAAUUUGGAGAAGAUGAGAUCGGAAGAGCACACGU | 1.4 ± 0.21 nM
target 2 MT 5'PFS AAA 3'PFS CCG (mixed) RNA 1: CACCCGUGCAAAAUUGCAGGGGUCUAAAACCUUCUCCAAAUUGUUUCAUCCU RNA 2: GGGAAUGGAUCCACAUCUACGAAUUCAAAAGGAUGAAACAAUUUGGAGAAGCCGAGAUCGGAAGAGCACACGU | 5.7 ± 0.9 nM
target 2 MT 5'PFS AAA 3'PFS CCA (mixed) RNA 1: CACCCGUGCAAAAUUGCAGGGGUCUAAAACCUUCUCCAAAUUGUUUCAUCCU RNA 2: GGGAAUGGAUCCACAUCUACGAAUUCAAAAGGAUGAAACAAUUUGGAGAAGCCAAGAUCGGAAGAGCACACGU | 10 ± 2.5 nM
target 2 MT 5'PFS UAU 3'PFS UAU (mixed) RNA 1: CACCCGUGCAAAAUUGCAGGGGUCUAAAACCUUCUCCAAAUUGUUUCAUCCU RNA 2: GGGAAUGGAUCCACAUCUACGAAUUCUAUAGGAUGAAACAAUUUGGAGAAGUAUAGAUCGGAAGAGCACACGU | 35 ± 8 nM
target 2 MT 5'PFS UCA 3'PFS CCG (mixed) RNA 1: CACCCGUGCAAAAUUGCAGGGGUCUAAAACCUUCUCCAAAUUGUUUCAUCCU RNA 2: GGGAAUGGAUCCACAUCUACGAAUUCUCAAGGAUGAAACAAUUUGGAGAAGCCGAGAUCGGAAGAGCACACGU | 5 ± 0.9 nM
target 2 MT 5'PFS GCC 3'PFS UGA (mixed) RNA 1: CACCCGUGCAAAAUUGCAGGGGUCUAAAACCUUCUCCAAAUUGUUUCAUCCU RNA 2: GGGAAUGGAUCCACAUCUACGAAUUCGCCAGGAUGAAACAAUUUGGAGAAGUGAAGAUCGGAAGAGCACACGU | 17 ± 5 nM
target 2 MT 5'PFS CUC 3'PFS CAU (mixed) RNA 1: CACCCGUGCAAAAUUGCAGGGGUCUAAAACCUUCUCCAAAUUGUUUCAUCCU RNA 2: GGGAAUGGAUCCACAUCUACGAAUUCCUCAGGAUGAAACAAUUUGGAGAAGCAUAGAUCGGAAGAGCACACGU | 1.82 ± 0.19 nM
target 2 MT 5'PFS UAC 3'PFS AUA (mixed) RNA 1: CACCCGUGCAAAAUUGCAGGGGUCUAAAACCUUCUCCAAAUUGUUUCAUCCU RNA 2: GGGAAUGGAUCCACAUCUACGAAUUCUACAGGAUGAAACAAUUUGGAGAAGAUAAGAUCGGAAGAGCACACGU | 4.9 ± 0.7 nM
target 2 MT 5'PFS UAC 3'PFS AUG (mixed) RNA 1: CACCCGUGCAAAAUUGCAGGGGUCUAAAACCUUCUCCAAAUUGUUUCAUCCU RNA 2: GGGAAUGGAUCCACAUCUACGAAUUCUACAGGAUGAAACAAUUUGGAGAAGAUGAGAUCGGAAGAGCACACGU | 6.8 ± 1.4 nM
target 2 MT 5'PFS UGU 3'PFS AUU (mixed) RNA 1: CACCCGUGCAAAAUUGCAGGGGUCUAAAACCUUCUCCAAAUUGUUUCAUCCU RNA 2: GGGAAUGGAUCCACAUCUACGAAUUCUGUAGGAUGAAACAAUUUGGAGAAGAUUAGAUCGGAAGAGCACACGU | 11.9 ± 1.7 nM
target 2 MT 5'PFS UCA 3'PFS CCU (mixed) RNA 1: CACCCGUGCAAAAUUGCAGGGGUCUAAAACCUUCUCCAAAUUGUUUCAUCCU RNA 2: GGGAAUGGAUCCACAUCUACGAAUUCUCAAGGAUGAAACAAUUUGGAGAAGCCUAGAUCGGAAGAGCACACGU | ~30 nM
target 2 MT 5'PFS GAC 3'PFS AGG (mixed) RNA 1: CACCCGUGCAAAAUUGCAGGGGUCUAAAACCUUCUCCAAAUUGUUUCAUCCU RNA 2: GGGAAUGGAUCCACAUCUACGAAUUCGACAGGAUGAAACAAUUUGGAGAAGAGGAGAUCGGAAGAGCACACGU | 9.5 ± 0.8 nM
target 2 MT 5'PFS CCU 3'PFS CCA (mixed) RNA 1: CACCCGUGCAAAAUUGCAGGGGUCUAAAACCUUCUCCAAAUUGUUUCAUCCU RNA 2: GGGAAUGGAUCCACAUCUACGAAUUCCCUAGGAUGAAACAAUUUGGAGAAGCCAAGAUCGGAAGAGCACACGU | 1.72 ± 0.2 nM
target 2 MT 5'PFS UAC 3'PFS AUU (mixed) RNA 1: CACCCGUGCAAAAUUGCAGGGGUCUAAAACCUUCUCCAAAUUGUUUCAUCCU RNA 2: GGGAAUGGAUCCACAUCUACGAAUUCUACAGGAUGAAACAAUUUGGAGAAGAUUAGAUCGGAAGAGCACACGU | 9.3 ± 2.9 nM
target 2 MT 5'PFS AAU 3'PFS UCU (mixed) RNA 1: CACCCGUGCAAAAUUGCAGGGGUCUAAAACCUUCUCCAAAUUGUUUCAUCCU RNA 2: GGGAAUGGAUCCACAUCUACGAAUUCAAUAGGAUGAAACAAUUUGGAGAAGUCUAGAUCGGAAGAGCACACGU | 10.7 ± 2 nM
target 2 MT 5'PFS AAU 3'PFS UCC (mixed) RNA 1: CACCCGUGCAAAAUUGCAGGGGUCUAAAACCUUCUCCAAAUUGUUUCAUCCU RNA 2: GGGAAUGGAUCCACAUCUACGAAUUCAAUAGGAUGAAACAAUUUGGAGAAGUCCAGAUCGGAAGAGCACACGU | 11.8 ± 1.9 nM
target 2 MT 5'PFS GCC 3'PFS UGC (mixed) RNA 1: CACCCGUGCAAAAUUGCAGGGGUCUAAAACCUUCUCCAAAUUGUUUCAUCCU RNA 2: GGGAAUGGAUCCACAUCUACGAAUUCGCCAGGAUGAAACAAUUUGGAGAAGUGCAGAUCGGAAGAGCACACGU | 10.9 ± 1.7 nM
